Measurements taken from PMC3871196 (Experimental eye research, 2011).

Target: purified Ca/CaM from bovine brain (bovine, UniProt P62157 1-149)
Test: fluorescence polarisation

Kd: 190 nM
Binder: ETWKAFLESVKKLGKG [PP-C peptide]
